B1: 7.1G10 (antibody, V domains shown)
VH: QVQLQQSGPELVKPGASVRISCKASGYTFTSYYIHWVKQRPGQGLEWIGWLYPGKINTRYNEKFKGKATLIADKSSSTAYMQLSSLTSEDSAVYFCARHVLNGNFDYWGQGTTLTVSS
VL: DIQMTQSPSSLSASLGERVSLTCRASQEISGYLSWLQQKPDGSIKRLIYAASTLDSGVPKRFSGSRSGADYSLTISSLESEDFADYYCLQYATYPYTFGGGTKLEIK
notes: ATCC PTA-3898
B2: soluble recombinant human αvβ6 (receptor)
chain 1: FNLDVDSPAEYSGPEGSYFGFAVDFFVPSASSRMFLLVGAPKANTTQPGIVEGGQVLKCDWSSTRRCQPIEFDATGNRDYAKDDPLEFKSHQWFGASVRSKQDKILACAPLYHWRTEMKQEREPVGTCFLQDGTKTVEYAPCRSQDIDADGQGFCQGGFSIDFTKADRVLLGGPGSFYWQGQLISDQVAEIVSKYDPNVYSIKYNNQLATRTAQAIFDDSYLGYSVAVGDFNGDGIDDFVSGVPRAARTLGMVYIYDGKNMSSLYNFTGEQMAAYFGFSVAATDINGDDYADVFIGAPLFMDRGSDGKLQEVGQVSVSLQRASGDFQTTKLNGFEVFARFGSAIAPLGDLDQDGFNDIAIAAPYGGEDKKGIVYIFNGRSTGLNAVPSQILEGQWAARSMPPSFGYSMKGATDIDKNGYPDLIVGAFGVDRAILYRARPVITVNAGLEVYPSILNQDNKTCSLPGTALKVSCFNVRFCLKADGKGVLPRKLNFQVELLLDKLKQKGAIRRALFLYSRSPSHSKNMTISRGGLMQCEELIAYLRDESEFRDKLTPITIFMEYRLDYRTAADTTGLQPILNQFTPANISRQAHILLDCGEDNVCKPKLEVSVDSDQKKIYIGDDNPLTLIVKAQNQGEGAYEAELIVSIPLQADFIGVVRNNEALARLSCAFKTENQTRQVVCDLGNPMKAGTQLLAGLRFSVHQQSEMDTSVKFDLQIQSSNLFDKVSPVVSHKVDLAVLAAVEIRGVSSPDHVFLPIPNWEHKENPETEEDVGPVVQHIYELRNNGPSSFSKAMLHLQWPYKYNNNTLLYILHYDIDGPMNCTSDMEINPLRIKISSLQTTEKNDTVAGQGERDHLITKRDLALSEGDIHTLGCGVAQCLKIVCQVGRLDRGKSAILYVKSLLWTETFMNKENQNHSYSLKSSASFNVIEFPYKNLPIEDITNSTLVTTNVTWGIQPAPMPV
chain 2: GCALGGAETCEDCLLIGPQCAWCAQENFTHPSGVGERCDTPANLLAKGCQLNFIENPVSQVEILKNKPLSVGRQKNSSDIVQIAPQSLILKLRPGGAQTLQVHVRQTEDYPVDLYYLMDLSASMDDDLNTIKELGSRLSKEMSKLTSNFRLGFGSFVEKPVSPFVKTTPEEIANPCSSIPYFCLPTFGFKHILPLTNDAERFNEIVKNQKISANIDTPEGGFDAIMQAAVCKEKIGWRNDSLHLLVFVSDADSHFGMDSKLAGIVIPNDGLCHLDSKNEYSMSTVLEYPTIGQLIDKLVQNNVLLIFAVTQEQVHLYENYAKLIPGATVGLLQKDSGNILQLIISAYEELRSEVELEVLGDTEGLNLSFTAICNNGTLFQHQKKCSHMKVGDTASFSVTVNIPHCERRSRHIIIKPVGLGDALELLVSPECNCDCQKEVEVNSSKCHHGNGSFQCGVCACHPGHMGPRCECGEDMLSTDSCKEAPDHPSCSGRGDCYCGQCICHLSPYGNIYGPYCQCDNFSCVRHKGLLCGGNGDCDCGECVCRSGWTGEYCNCTTSTDSCVSEDGVLCSGRGDCVCGKCVCTNPGASGPTCERCPTCGDPCNSKRSCIECHLSAAGQAREECVDKCKLAGATISEEEDFSKDGSVSCSLQGENECLITFLITTDNEGKTIIHSINEKDCPKPPNIP
notes: extracellular domain; also called hsαvβ6; soluble human truncated αvβ6
B3: 7.7G5 (antibody, V domains shown)
VH: EVQLQQSGPELVKPGASVKISCKASGYSFTGYFMNWVMQSHGKSLEWIGRIKPYNGDNFYNQKFMGKATLTVDKSSSTVHMELRSLASEDSAVYYCARDRYGTYGMDYWGQGTSVTVSS
VL: QIVLTQSPAIMSASPGEKVTMTCSASSSVSYMHWYQQKSGTSPKRWIYDTSKLASGVPTRFSGSGSGTSYSLTINSMEAEDAATYYCQQWSSHPPTFGAGTKLELK
notes: ATCC PTA-3899

How the values were obtained:
[1] = target: αvβ6 on β6-transfected SW480 cells (UniProt P06756 31-1048; P18564 22-788); assay: cell-based or functional assay
[2] = target: B2; assay: biotin-hsαvβ6 to coated LAP, blocking
Protocol: 96-well microtiter plates (Corning COSTAR EASY-WASH) were coated with 0.3 μg/ml recombinant human LAP (R&D Systems, Cat. # 246-LP) diluted in PBS (50 μl/well) at 4° C. overnight. After the coating solution was removed, the plates were blocked with 180 μl/well of 3% BSA/TBS at 25° C. for 1 hr. […] After washing the LAP-coated plate with wash buffer (0.1% TWEEN-20 in PBS) 4 times in an automated plate washer, 100 μl of the antibody-αᵥβ₆ mixture was transferred to the plate, and incubated for 1 hr at 25° C. The plate was washed as above and incubated with 50 μl/well of a 1:1000 dilution of extravidin-horseradish peroxidase conjugate (Sigma) in TBS (1 mg/ml BSA) for 1 hr at 25° C. Bound protein was detected using the TMB substrate.
The purified antibodies were next evaluated for their ability to inhibit the αᵥβ₆-LAP interaction.

[3] = target: B2; assay: ELISA, coated hsαvβ6
Protocol: A 96-well microtiter plate (Corning COSTAR EASY-WASH) was coated with 50 μl/well of 5 μg/ml hsαᵥβ₆ at 4° C. overnight. The plate was washed with wash buffer (0.1% TWEEN-20 in PBS) four times in an automated plate washer. Then 180 μl/well of 3% BSA in TBS was added and incubated for 1 hr at 25° C. to block nonspecific binding. The plate was washed as above, and dilutions of either hybridoma supernatant (for screening assays) or purified antibody (for characterization) in TBS containing 1 mg/ml BSA, 1 mM CaCl₂, and 1 mM MgCl₂ were added (50 μl/well). The plate was incubated for 1 hr at 25° C., washed, and then incubated for 1 hr with 50 μl/well of […] goat anti-mouse IgG+A+M antibody (Cappel). Bound antibody was detected using 3,3′,5,5′-tetramethylbenzidine (TMB). Binding was indicated by the absorbency measured at 450 nm.

[4] = target: T1, αvβ6 on β6-transfected FDC-P1 cells (murine, UniProt P43406 31-1044; Q9Z0T9 22-787); assay: β6-FDC-P1 cells to coated LAP, blocking
T1 construct: whole, on cells; αv is that of the murine host cell line; also called β6-FDC-P1 cells; β6-transfected murine cells
Protocol: A 96-well microtiter plate was coated with 50 μl/well of 0.5 μg/ml recombinant human LAP (R&D Systems) diluted in 50 mM sodium bicarbonate, pH 9.2 at 4° C. overnight. The plate was washed twice with PBS (100 μl/well) and blocked with 1% BSA in PBS (100 μl/well) for 1 hr at 25° C. The plate was washed twice with 100 μl/well of assay buffer (TBS complete plus 1 mM CaCl₂ and 1 mM MgCl₂). Next, to the individual wells of the plate were added 25 μl of a hybridoma supernatant (or a purified antibody) and 25 μl of β₆-FDC-P1 cells (5×10⁶ cells/ml, labeled with Calcein AM as described above). The plate was incubated at 25° C. for 1 hr, and then washed 4-6 times with the assay buffer (100 μl/well). The fluorescence emitted from cells captured on the plate was recorded. Percentage binding was determined by comparing the fluorescence signal prior to the final wash step (i.e., total cells added) to that after washing (i.e., bound cells).

6.3G9 = target: T2, 6.3G9; assay: KinExA: soluble αvβ6 titrated against 1e-10 M antibody, free antibody caught on integrin-coated beads
T2 construct: ATCC PTA-3649; also called biotinylated 6.3G9
Protocol: A series of dilutions of the soluble integrin (1×10⁻⁸ M to 2.4×10⁻¹² M) were incubated with 1×10⁻¹⁰ M of the antibody for 3 h. These samples were then passed through polymethylmethacrylate beads coated with the integrin using a KinExA instrument (Sapidyne Instruments, Inc., Boise, Id.). In the case of 6.8G6, 11 mM CaCl₂ and […] MgCl₂ were included in the incubation and assay buffers. The amounts of bound and free antibody were determined using a Cy5-labeled anti-mouse secondary antibody. Quadratic curve fitting was performed using the KinExA software to attain a dissociation constant (Kd) for each interaction. […] Thus, both of these antibodies had very high affinities for αᵥβ₆.

T1 sequence (P43406 31-1044, chain 1 of 2): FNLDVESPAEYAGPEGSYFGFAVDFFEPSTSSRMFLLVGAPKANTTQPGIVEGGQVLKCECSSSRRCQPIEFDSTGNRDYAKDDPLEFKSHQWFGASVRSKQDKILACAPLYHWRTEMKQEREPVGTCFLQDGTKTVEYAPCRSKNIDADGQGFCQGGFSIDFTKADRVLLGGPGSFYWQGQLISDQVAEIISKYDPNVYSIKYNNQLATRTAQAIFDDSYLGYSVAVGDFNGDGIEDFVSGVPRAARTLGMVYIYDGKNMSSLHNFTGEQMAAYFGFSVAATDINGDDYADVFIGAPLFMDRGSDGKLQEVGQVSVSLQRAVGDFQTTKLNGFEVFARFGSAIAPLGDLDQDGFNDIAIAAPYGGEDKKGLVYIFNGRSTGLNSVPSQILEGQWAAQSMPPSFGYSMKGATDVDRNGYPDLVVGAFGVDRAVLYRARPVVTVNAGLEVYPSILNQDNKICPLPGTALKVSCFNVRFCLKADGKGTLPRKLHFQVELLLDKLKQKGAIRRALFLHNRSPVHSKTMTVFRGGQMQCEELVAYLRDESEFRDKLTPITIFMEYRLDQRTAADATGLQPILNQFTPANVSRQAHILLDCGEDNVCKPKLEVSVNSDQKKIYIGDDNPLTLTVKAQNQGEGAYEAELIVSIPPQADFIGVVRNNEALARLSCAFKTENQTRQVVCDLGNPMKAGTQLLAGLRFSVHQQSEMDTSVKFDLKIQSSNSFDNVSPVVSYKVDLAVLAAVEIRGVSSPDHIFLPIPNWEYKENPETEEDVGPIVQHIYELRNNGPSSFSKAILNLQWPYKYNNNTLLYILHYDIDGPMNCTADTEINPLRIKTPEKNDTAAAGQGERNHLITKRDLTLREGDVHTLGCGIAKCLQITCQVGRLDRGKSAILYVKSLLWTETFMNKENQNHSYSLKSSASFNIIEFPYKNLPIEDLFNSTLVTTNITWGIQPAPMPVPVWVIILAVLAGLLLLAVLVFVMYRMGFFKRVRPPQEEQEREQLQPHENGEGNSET
T1 sequence (Q9Z0T9 22-787, chain 2 of 2): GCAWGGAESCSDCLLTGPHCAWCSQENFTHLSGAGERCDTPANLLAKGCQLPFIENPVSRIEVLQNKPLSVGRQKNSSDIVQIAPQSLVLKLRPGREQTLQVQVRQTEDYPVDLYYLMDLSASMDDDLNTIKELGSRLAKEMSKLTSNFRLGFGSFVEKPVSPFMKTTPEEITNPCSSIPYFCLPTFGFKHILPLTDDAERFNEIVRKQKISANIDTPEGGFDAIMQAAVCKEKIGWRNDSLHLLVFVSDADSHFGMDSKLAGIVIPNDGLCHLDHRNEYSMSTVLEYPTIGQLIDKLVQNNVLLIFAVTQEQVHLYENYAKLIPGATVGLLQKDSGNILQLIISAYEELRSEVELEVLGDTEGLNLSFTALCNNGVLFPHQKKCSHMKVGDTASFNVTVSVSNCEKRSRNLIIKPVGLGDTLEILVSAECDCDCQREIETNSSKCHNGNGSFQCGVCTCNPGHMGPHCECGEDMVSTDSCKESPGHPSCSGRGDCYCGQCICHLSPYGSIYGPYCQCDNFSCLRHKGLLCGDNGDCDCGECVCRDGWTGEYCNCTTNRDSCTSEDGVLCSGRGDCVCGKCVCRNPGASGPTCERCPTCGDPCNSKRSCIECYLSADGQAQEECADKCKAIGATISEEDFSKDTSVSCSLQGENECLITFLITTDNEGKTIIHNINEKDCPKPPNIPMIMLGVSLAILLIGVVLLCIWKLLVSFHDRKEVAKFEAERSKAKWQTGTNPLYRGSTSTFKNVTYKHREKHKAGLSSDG

Row | Binder | PAI-1 luciferase IC50 [1] | IC50 [2] | EC50 [3] | IC50 [4] | IC50 (read off the curve) (6.3G9)
1 | B1 | 0.25 µg/mL | 0.113 µg/mL | 0.0042 µg/mL | 0.03 µg/mL | 
2 | B2 |  |  |  |  | ~0.05 nM
3 | B3 | 0.7 µg/mL | 0.155 µg/mL | 0.013 µg/mL | 0.051 µg/mL | 
